Target: T1, thrombin (Homo sapiens, UniProt P00734)
T1 construct: converts prothrombin into thrombin
Test: Stability of HBGF-1β to thrombin in the presence of heparin (Western blot)
Format: biochemical
Settings: heparin as low as 5U/ml; thrombin 250 U/ml; 37° C.
Procedure: FIGS. 1A-1F show Western blots of gels on which samples containing HBGF-1β had been incubated with 250 U/ml thrombin in the presence of increasing concentrations of heparin. Solutions containing HBGF-1β (10 μg/ml), thrombin ([…]), and increasing concentrations of heparin (0, 0.5, 5, 10, 20, and 50 units/ml) were incubated at 37° C. for 72 hours. Aliquots were periodically removed from each of the incubating mixtures and were loaded onto 8% SDS polyacrylamide gels that were prepared and run as described by Laemmli (Nature 227:680 (1970)). The gel was then electroblotted onto nitrocellulose and the band corresponding to HBGF-1β was identified using an affinity-purified polyclonal rabbit antiserum to HBGF-1β.
The concentrations of heparin in the incubating mixtures were: panel A) 0 units/ml; panel B) 0.5 U/ml; Panel C) 5 U/ml; panel D) 10 U/ml; panel E) 20 U/ml; and panel F) 50 U/ml. […]
Similarly, the ability of a selected inhibitor to protect a growth factor from degradation by TS components may be assessed by any method known to those of skill in the art. […]
It was necessary to add an ingredient to the FG that would inhibit or prevent the digestion of HBGF-1β by thrombin (Lobb, Biochem. 27:2572-2578 (1988)), which is a component of FG. […] The stability of HBGF-1 in the presence of increasing concentrations of heparin was assessed. […]

## HBGF-1: heparin binding growth factor-1, also known as ECGF and FGF-1; recombinant HBGF-1β expressed in E. coli
  protection of HBGF-1β from digestion by thrombin: protected from digestion by thrombin
